Experiments:
Test in all cases: peptide EIA, 2 ug/mL IgG;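 note: purified mouse IgG binding to individually well-coated synthetic peptides, detected with peroxidase anti-mouse IgG Fc and o-phenylenediamine, IgG incubated at least 1 h at room temperature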
HCV core peptide 43 = biological target: T1, HCV core peptide 43 (hepatitis C virus, N-terminal biotin; C-terminal amide)
T1 construct: range 85-99
Protocol: (§1) The coated plates were kept dry in a sealed foil pouch and stored at <10 degrees C. until ready for use. A peptide coated plate for each test antibody was blocked using 3% BSA in PBS with 0.5% Tween 20. The blocked plates were washed with distilled water and a 2 ug/mL solution of purified IgG from each test sample diluted in BSA block solution was added to each peptide coated well of the blocked plate and allowed to incubate at room temperature for at least one hour. Following incubation the plates were washed with distilled water. A 200 ng/mL solution of peroxidase labeled F(ab′)2 fragment goat anti-mouse IgG Fc fragment specific (Jackson Immunoresearch) in BSA block solution was added to all wells and incubated at room temperature for 30 minutes. The plates were washed with distilled water and o-phenylenediamine substrate was used as the chromagen to generate signal. Plates were read at 492 nm and the results were analyzed.

HCV core peptide 29 = biological target: T2, HCV core peptide 29 (hepatitis C virus, N-terminal biotin; C-terminal amide)
T2 construct: range 57-71
Protocol: as §1

HCV core peptide 65 = HCV core peptide 65 (hepatitis C virus, N-terminal biotin; C-terminal amide)
Protocol: as §1

HCV core peptide 16 = biological target: T3, HCV core peptide 16 (hepatitis C virus, N-terminal biotin; C-terminal amide)
T3 construct: range 31-45
Protocol: as §1

HCV core peptide 7 = biological target: T4, HCV core peptide 7 (hepatitis C virus, N-terminal biotin; C-terminal amide)
T4 construct: range 13-27
Protocol: as §1

HCV core peptide 38 = biological target: T5, HCV core peptide 38 (hepatitis C virus, N-terminal biotin; C-terminal amide)
T5 construct: range 75-89
Protocol: as §1

HCV core peptide 24 = biological target: T6, HCV core peptide 24 (hepatitis C virus, N-terminal biotin; C-terminal amide)
T6 construct: range 47-61
Protocol: as §1

HCV core peptide 3 = biological target: T7, HCV core peptide 3 (hepatitis C virus, N-terminal biotin; C-terminal amide)
T7 construct: range 5-19
Protocol: as §1

HCV core peptide 86 = HCV core peptide 86 (hepatitis C virus, N-terminal biotin; C-terminal amide)
Protocol: as §1

HCV core peptide 73 = HCV core peptide 73 (hepatitis C virus, N-terminal biotin; C-terminal amide)
Protocol: as §1

HCV core peptide 47 = HCV core peptide 47 (hepatitis C virus, N-terminal biotin; C-terminal amide)
Protocol: as §1

HCV core peptide 60 = HCV core peptide 60 (hepatitis C virus, N-terminal biotin; C-terminal amide)
Protocol: as §1

HCV core peptide 53 = biological target: T8, HCV core peptide 53 (hepatitis C virus, HELM PEPTIDE1{[O=C1N[C@H]2[C@H](CS[C@H]2CCCCC(=O)[*:2])N1].S.G.S.G.P.S.W.G.P.T.D.P.R.R.R.S.R.N.L.[am]}$$$$V2.0; SMILES …)
T8 peptide: SGSGPSWGPTDPRRRSRNL
Protocol: as §1

HCV core peptide 71 = HCV core peptide 71 (hepatitis C virus, N-terminal biotin; C-terminal amide)
Protocol: as §1

HCV core peptide 9 = biological target: T9, HCV core peptide 9 (hepatitis C virus, N-terminal biotin; C-terminal amide)
T9 construct: range 17-31
Protocol: as §1

HCV core peptide 58 = HCV core peptide 58 (hepatitis C virus, N-terminal biotin; C-terminal amide)
Protocol: as §1

HCV core peptide 13 = biological target: T10, HCV core peptide 13 (hepatitis C virus, N-terminal biotin; C-terminal amide)
T10 construct: range 25-39
Protocol: as §1

HCV core peptide 63 = HCV core peptide 63 (hepatitis C virus, N-terminal biotin; C-terminal amide)
Protocol: as §1

HCV core peptide 26 = biological target: T11, HCV core peptide 26 (hepatitis C virus, N-terminal biotin; C-terminal amide)
T11 construct: range 51-65
Protocol: as §1

HCV core peptide 76 = HCV core peptide 76 (hepatitis C virus, N-terminal biotin; C-terminal amide)
Protocol: as §1

HCV core peptide 6 = biological target: T12, HCV core peptide 6 (hepatitis C virus, N-terminal biotin; C-terminal amide)
T12 construct: range 11-25
Protocol: as §1

HCV core peptide 80 = HCV core peptide 80 (hepatitis C virus, N-terminal biotin; C-terminal amide)
Protocol: as §1

HCV core peptide 45 = HCV core peptide 45 (hepatitis C virus, N-terminal biotin; C-terminal amide)
Protocol: as §1

HCV core peptide 64 = HCV core peptide 64 (hepatitis C virus, N-terminal biotin; C-terminal amide)
Protocol: as §1

HCV core peptide 83 = biological target: T13, HCV core peptide 83 (hepatitis C virus, N-terminal biotin; C-terminal amide)
T13 construct: range 165-179
Protocol: as §1

HCV core peptide 66 = HCV core peptide 66 (hepatitis C virus, N-terminal biotin; C-terminal amide)
Protocol: as §1

HCV core peptide 42 = biological target: T14, HCV core peptide 42 (hepatitis C virus, N-terminal biotin; C-terminal amide)
T14 construct: range 83-97
Protocol: as §1

HCV core peptide 49 = biological target: T15, HCV core peptide 49 (hepatitis C virus, HELM PEPTIDE1{[O=C1N[C@H]2[C@H](CS[C@H]2CCCCC(=O)[*:2])N1].S.G.S.G.L.L.S.P.R.G.S.R.P.S.W.G.P.T.D.[am]}$$$$V2.0; SMILES …)
T15 peptide: SGSGLLSPRGSRPSWGPTD
Protocol: as §1

HCV core peptide 23 = biological target: T16, HCV core peptide 23 (hepatitis C virus, N-terminal biotin; C-terminal amide)
T16 construct: range 45-59
Protocol: as §1

HCV core peptide 11 = biological target: T17, HCV core peptide 11 (hepatitis C virus, N-terminal biotin; C-terminal amide)
T17 construct: range 21-35
Protocol: as §1

HCV core peptide 36 = biological target: T18, HCV core peptide 36 (hepatitis C virus, N-terminal biotin; C-terminal amide)
T18 construct: range 71-85
Protocol: as §1

HCV core peptide 27 = biological target: T19, HCV core peptide 27 (hepatitis C virus, N-terminal biotin; C-terminal amide)
T19 construct: range 53-67
Protocol: as §1

HCV core peptide 82 = biological target: T20, HCV core peptide 82 (hepatitis C virus, N-terminal biotin; C-terminal amide)
T20 construct: range 163-177
Protocol: as §1

B1: Neo4 mouse monoclonal antibody (antibody, V domains shown)
VH: QIQLKESGPAVIKPSQSLSLTCIVSGFSITSSVYCWQWIRQPPGKGLEWMGRICYDGSVDYSPSITSRGTISRDTSLNKVFFQLSSVTNEDTAMYYCSRENHIDYYDTTYPSFDVWGAGTTVTVSS
VL: DIVLTQSPASLIVSLGQRATISCRASKSVNEYGYTYMHWYQQKPGLPPKLLIYLASNLDSGVPARFSGSGSGTDFTLNIHPVEEEDAATYYCQHSRELPYTFGGGTKLEIKR
notes: Mouse hybridoma antibody, isotype IgG1, purified with Protein G; also called HCV Neo4
HCV core peptide 43
  OD (A492 nm): 0.05 OD
HCV core peptide 29
  OD (A492 nm): 0.04 OD
HCV core peptide 65
  OD (A492 nm): 0.04 OD
HCV core peptide 16
  OD (A492 nm): 0.06 OD
HCV core peptide 7
  OD (A492 nm): 0.07 OD
HCV core peptide 38
  OD (A492 nm): 0.05 OD
HCV core peptide 24
  OD (A492 nm): 0.05 OD
HCV core peptide 3
  OD (A492 nm): 0.05 OD
HCV core peptide 86
  OD (A492 nm): 0.05 OD
HCV core peptide 73
  OD (A492 nm): 0.04 OD
HCV core peptide 47
  OD (A492 nm): 0.05 OD
HCV core peptide 60
  OD (A492 nm): 0.06 OD
HCV core peptide 53
  OD (A492 nm): 0.96 OD
HCV core peptide 71
  OD (A492 nm): 0.05 OD
HCV core peptide 9
  OD (A492 nm): 0.05 OD
HCV core peptide 58
  OD (A492 nm): 0.05 OD
HCV core peptide 13
  OD (A492 nm): 0.05 OD
HCV core peptide 63
  OD (A492 nm): 0.04 OD
HCV core peptide 26
  OD (A492 nm): 0.04 OD
HCV core peptide 76
  OD (A492 nm): 0.05 OD
HCV core peptide 6
  OD (A492 nm): 0.06 OD
HCV core peptide 80
  OD (A492 nm): 0.05 OD
HCV core peptide 45
  OD (A492 nm): 0.04 OD
HCV core peptide 64
  OD (A492 nm): 0.04 OD
HCV core peptide 83
  OD (A492 nm): 0.05 OD
HCV core peptide 66
  OD (A492 nm): 0.05 OD
HCV core peptide 42
  OD (A492 nm): 0.04 OD
HCV core peptide 49
  OD (A492 nm): 0.05 OD
HCV core peptide 23
  OD (A492 nm): 0.05 OD
HCV core peptide 11
  OD (A492 nm): 0.05 OD
HCV core peptide 36
  OD (A492 nm): 0.05 OD
HCV core peptide 27
  OD (A492 nm): 0.04 OD
HCV core peptide 82
  OD (A492 nm): 0.04 OD

Source: US20190170753A1 (ICAHN SCHOOL OF MEDICINE AT MOUNT SINAI, published 2019)
